In the assay the target is …-Toyopearl (PTCH peptide, positive control). As to the kind of experiment: equilibrium adsorption on peptide resin.

On to “tandem WW domain of Yes-Associated Protein 1 (WW-YAP), soluble recombinant human protein (domain or fragment)”, for which the percent of the incubated protein bound was > 73%.
